# According to the supplement of paper PMC9112550, “Optimization of the antimicrobial peptide Bac7 by deep mutational scanning” (BMC Biology, 2022):
# Tested on: Escherichia coli TOP10
# Test: shrunken log2 fold change of peptide-encoding DNA abundance (4.5 h post-induction vs induction); higher = less antimicrobial activity (less host growth inhibition)
# Conditions: time post-induction: 4.5 h; library: site-saturation at positions 5, 18, 19, 20
# 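Note: peptides expressed intracellularly from a pBAD plasmid library in pooled LB shake-flask culture, induced with 0.3% L-arabinose, DNA abundance read by NGS, three biological replicates, DESeq2 with apeglm shrinkage.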
row,Sequence,shrunken log2 fold change
1,RRIRLRPPRLPRPRPRPYDYPRP,-0.0244
2,RRIRLRPPRLPRPRPRPYFMPRP,-0.855
3,RRIRLRPPRLPRPRPRPYFQPRP,-0.269
4,RRIRLRPPRLPRPRPRPYFTPRP,-0.468
5,RRIRLRPPRLPRPRPRPYGAPRP,-0.0327
6,RRIRLRPPRLPRPRPRPYGKPRP,-0.242
7,RRIRLRPPRLPRPRPRPYHCPRP,-0.575
8,RRIRLRPPRLPRPRPRPYKEPRP,-0.0365
9,RRIRLRPPRLPRPRPRPYKKPRP,-0.404
10,RRIRLRPPRLPRPRPRPYLWPRP,-0.0439
11,RRIRLRPPRLPRPRPRPYMDPRP,-0.0681
12,RRIRLRPPRLPRPRPRPYMTPRP,-0.82
13,RRIRLRPPRLPRPRPRPYQCPRP,-0.373
14,RRIRLRPPRLPRPRPRPYQHPRP,-0.661
15,RRIRLRPPRLPRPRPRPYQNPRP,-0.0985
16,RRIRLRPPRLPRPRPRPYSDPRP,-0.0348
17,RRIRLRPPRLPRPRPRPYTKPRP,0.119
18,RRIRLRPPRLPRPRPRPYVLPRP,-0.0278
19,RRIRLRPPRLPRPRPRPYWGPRP,-0.304
20,RRIRLRPPRLPRPRPRPYWKPRP,-0.0713
21,RRIRLRPPRLPRPRPRPYWLPRP,-0.54
22,RRIRMRPPRLPRPRPRPAAIPRP,0.456
23,RRIRMRPPRLPRPRPRPAAKPRP,1.26
24,RRIRMRPPRLPRPRPRPAAMPRP,0.915
25,RRIRMRPPRLPRPRPRPACNPRP,0.39

row,Sequence,shrunken log2 fold change
1,RRIRMRPPRLPRPRPRPAEHPRP,-0.0575
2,RRIRMRPPRLPRPRPRPAERPRP,0.385
3,RRIRMRPPRLPRPRPRPAFDPRP,0.629
4,RRIRMRPPRLPRPRPRPAFNPRP,0.144
5,RRIRMRPPRLPRPRPRPAGEPRP,1.87
6,RRIRMRPPRLPRPRPRPAHPPRP,0.296
7,RRIRMRPPRLPRPRPRPAIAPRP,1.25
8,RRIRMRPPRLPRPRPRPAKYPRP,-0.111
9,RRIRMRPPRLPRPRPRPALQPRP,0.791
10,RRIRMRPPRLPRPRPRPANGPRP,0.094
11,RRIRMRPPRLPRPRPRPANPPRP,0.267
12,RRIRMRPPRLPRPRPRPANYPRP,-0.394
13,RRIRMRPPRLPRPRPRPAPNPRP,1.07
14,RRIRMRPPRLPRPRPRPAPQPRP,1.77
15,RRIRMRPPRLPRPRPRPARTPRP,1.53
16,RRIRMRPPRLPRPRPRPATSPRP,0.654
17,RRIRMRPPRLPRPRPRPATWPRP,0.515
18,RRIRMRPPRLPRPRPRPAWTPRP,0.08
19,RRIRMRPPRLPRPRPRPAYRPRP,0.196
20,RRIRMRPPRLPRPRPRPAYTPRP,-0.0493
21,RRIRMRPPRLPRPRPRPCCLPRP,0.273
22,RRIRMRPPRLPRPRPRPCCPPRP,-0.0946
23,RRIRMRPPRLPRPRPRPCDVPRP,0.0259
24,RRIRMRPPRLPRPRPRPCGCPRP,0.0371
25,RRIRMRPPRLPRPRPRPCGNPRP,0.137

row,Sequence,shrunken log2 fold change
1,RRIRMRPPRLPRPRPRPCGRPRP,1.09
2,RRIRMRPPRLPRPRPRPCGSPRP,-0.0626
3,RRIRMRPPRLPRPRPRPCGVPRP,0.714
4,RRIRMRPPRLPRPRPRPCHGPRP,0.241
5,RRIRMRPPRLPRPRPRPCIRPRP,-0.122
6,RRIRMRPPRLPRPRPRPCKAPRP,0.173
7,RRIRMRPPRLPRPRPRPCLDPRP,-0.273
8,RRIRMRPPRLPRPRPRPCLTPRP,0.000866
9,RRIRMRPPRLPRPRPRPCMHPRP,0.14
10,RRIRMRPPRLPRPRPRPCMMPRP,-0.124
11,RRIRMRPPRLPRPRPRPCNVPRP,0.0415
12,RRIRMRPPRLPRPRPRPCNWPRP,-0.00208
13,RRIRMRPPRLPRPRPRPCPWPRP,0.0763
14,RRIRMRPPRLPRPRPRPCQYPRP,0.0396
15,RRIRMRPPRLPRPRPRPCSKPRP,-0.00101
16,RRIRMRPPRLPRPRPRPCTDPRP,-0.132
17,RRIRMRPPRLPRPRPRPCVEPRP,0.755
18,RRIRMRPPRLPRPRPRPCVHPRP,0.0648
19,RRIRMRPPRLPRPRPRPCYDPRP,0.0509
20,RRIRMRPPRLPRPRPRPCYGPRP,-0.534
21,RRIRMRPPRLPRPRPRPCYLPRP,0.0715
22,RRIRMRPPRLPRPRPRPCYVPRP,-0.506
23,RRIRMRPPRLPRPRPRPDACPRP,1.97
24,RRIRMRPPRLPRPRPRPDAGPRP,1.12
25,RRIRMRPPRLPRPRPRPDCFPRP,0.0619

row,Sequence,shrunken log2 fold change
1,RRIRMRPPRLPRPRPRPDCKPRP,-0.0414
2,RRIRMRPPRLPRPRPRPDDGPRP,0.038
3,RRIRMRPPRLPRPRPRPDDLPRP,2.58
4,RRIRMRPPRLPRPRPRPDDSPRP,0.175
5,RRIRMRPPRLPRPRPRPDEDPRP,-0.0149
6,RRIRMRPPRLPRPRPRPDFNPRP,0.0763
7,RRIRMRPPRLPRPRPRPDFTPRP,0.463
8,RRIRMRPPRLPRPRPRPDGFPRP,0.0516
9,RRIRMRPPRLPRPRPRPDGGPRP,0.135
10,RRIRMRPPRLPRPRPRPDGPPRP,0.0285
11,RRIRMRPPRLPRPRPRPDGSPRP,0.107
12,RRIRMRPPRLPRPRPRPDHYPRP,-0.0146
13,RRIRMRPPRLPRPRPRPDIDPRP,0.467
14,RRIRMRPPRLPRPRPRPDIIPRP,1.42
15,RRIRMRPPRLPRPRPRPDKKPRP,-0.0148
16,RRIRMRPPRLPRPRPRPDKRPRP,0.076
17,RRIRMRPPRLPRPRPRPDLHPRP,0.0663
18,RRIRMRPPRLPRPRPRPDLNPRP,0.178
19,RRIRMRPPRLPRPRPRPDLYPRP,0.0737
20,RRIRMRPPRLPRPRPRPDPNPRP,0.0963
21,RRIRMRPPRLPRPRPRPDPTPRP,0.0984
22,RRIRMRPPRLPRPRPRPDQCPRP,0.0192
23,RRIRMRPPRLPRPRPRPDQQPRP,-0.0225
24,RRIRMRPPRLPRPRPRPDRDPRP,0.353
25,RRIRMRPPRLPRPRPRPDSGPRP,-0.01

row,Sequence,shrunken log2 fold change
1,RRIRMRPPRLPRPRPRPDSYPRP,0.0873
2,RRIRMRPPRLPRPRPRPDYTPRP,-0.0182
3,RRIRMRPPRLPRPRPRPEAEPRP,2.18
4,RRIRMRPPRLPRPRPRPECAPRP,3.56
5,RRIRMRPPRLPRPRPRPECHPRP,-0.0482
6,RRIRMRPPRLPRPRPRPECTPRP,2.91
7,RRIRMRPPRLPRPRPRPEDAPRP,3.45
8,RRIRMRPPRLPRPRPRPEDMPRP,3.26
9,RRIRMRPPRLPRPRPRPEFTPRP,0.101
10,RRIRMRPPRLPRPRPRPEKPPRP,1.34
11,RRIRMRPPRLPRPRPRPELLPRP,3.52
12,RRIRMRPPRLPRPRPRPELRPRP,2.02
13,RRIRMRPPRLPRPRPRPEMWPRP,2.4
14,RRIRMRPPRLPRPRPRPEPIPRP,0.0584
15,RRIRMRPPRLPRPRPRPEPTPRP,2.58
16,RRIRMRPPRLPRPRPRPEQDPRP,0.0255
17,RRIRMRPPRLPRPRPRPEQHPRP,1.06
18,RRIRMRPPRLPRPRPRPEQRPRP,2.55
19,RRIRMRPPRLPRPRPRPEQWPRP,0.184
20,RRIRMRPPRLPRPRPRPESEPRP,3.39
21,RRIRMRPPRLPRPRPRPESSPRP,0.135
22,RRIRMRPPRLPRPRPRPETMPRP,3.17
23,RRIRMRPPRLPRPRPRPEVNPRP,0.156
24,RRIRMRPPRLPRPRPRPEWRPRP,0.829
25,RRIRMRPPRLPRPRPRPEWWPRP,-0.00783

row,Sequence,shrunken log2 fold change
1,RRIRMRPPRLPRPRPRPFDHPRP,-0.00544
2,RRIRMRPPRLPRPRPRPFDWPRP,0.597
3,RRIRMRPPRLPRPRPRPFEHPRP,-0.327
4,RRIRMRPPRLPRPRPRPFESPRP,-0.00973
5,RRIRMRPPRLPRPRPRPFFVPRP,-0.0457
6,RRIRMRPPRLPRPRPRPFGPPRP,-0.159
7,RRIRMRPPRLPRPRPRPFGRPRP,-0.00674
8,RRIRMRPPRLPRPRPRPFIAPRP,-0.251
9,RRIRMRPPRLPRPRPRPFIYPRP,0.892
10,RRIRMRPPRLPRPRPRPFLIPRP,-0.34
11,RRIRMRPPRLPRPRPRPFLLPRP,-0.227
12,RRIRMRPPRLPRPRPRPFLSPRP,-0.0215
13,RRIRMRPPRLPRPRPRPFNFPRP,-0.598
14,RRIRMRPPRLPRPRPRPFNWPRP,-0.0926
15,RRIRMRPPRLPRPRPRPFQFPRP,-0.0349
16,RRIRMRPPRLPRPRPRPFQRPRP,-0.0335
17,RRIRMRPPRLPRPRPRPFRNPRP,-0.0431
18,RRIRMRPPRLPRPRPRPFTAPRP,0.245
19,RRIRMRPPRLPRPRPRPFVNPRP,1.6
20,RRIRMRPPRLPRPRPRPFWLPRP,-0.179
21,RRIRMRPPRLPRPRPRPFWNPRP,-0.266
22,RRIRMRPPRLPRPRPRPGACPRP,0.73
23,RRIRMRPPRLPRPRPRPGCFPRP,0.773
24,RRIRMRPPRLPRPRPRPGCKPRP,0.172
25,RRIRMRPPRLPRPRPRPGCLPRP,0.503
